We go through one substance from US20090048164A1.

In assay [1] the target is Bcl-2. The experiment in a line: Biacore competition vs immobilised BimBH3. In general terms: In SPR one partner is held on a chip, and binding of the other changes the refractive index at the surface.
Assay [2] has as its target mouse Mcl-1 with truncations of 151 amino acid residues at its N-terminus and 23 residues at its C-terminus (mouse) (UniProt P97287). The experiment in a line: Biacore competition vs immobilised BimBH3.
For assay [3], the target named is A1. The experiment in a line: Biacore competition vs immobilised BimBH3.
The target of assay [4] is Bcl-w. The experiment in a line: Biacore competition vs immobilised BimBH3.
Bcl-w, sequence (Q92843 1-164): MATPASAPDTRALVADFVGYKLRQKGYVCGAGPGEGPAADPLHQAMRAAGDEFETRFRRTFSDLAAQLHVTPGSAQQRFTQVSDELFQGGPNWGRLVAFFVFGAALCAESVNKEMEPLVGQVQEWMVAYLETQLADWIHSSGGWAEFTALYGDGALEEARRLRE
In assay [5] the target is Recombinant human Bcl-xL with a 25 amino acid truncation of its C-terminus (human) (UniProt Q07817). The experiment in a line: Biacore competition, synthetic peptides; against wild-type BimBH3 peptide.
Recombinant human Bcl-xL with a 25 amino acid truncation of its C-terminus (human), sequence (Q07817 1-208): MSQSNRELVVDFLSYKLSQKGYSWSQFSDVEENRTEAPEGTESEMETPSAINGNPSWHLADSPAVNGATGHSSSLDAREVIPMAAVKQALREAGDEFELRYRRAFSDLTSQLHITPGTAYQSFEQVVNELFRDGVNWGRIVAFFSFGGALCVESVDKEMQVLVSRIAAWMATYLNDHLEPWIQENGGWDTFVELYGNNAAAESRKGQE
For assay [6], the target named is Bcl-2. The assay is described as above.
Assay [7] addresses mouse Mcl-1 with truncations of 151 amino acid residues at its N-terminus and 23 residues at its C-terminus (mouse) (UniProt P97287). The description is as above.
Assay [8] concerns the target A1. The description is as above.
Assay [9] deals with Bcl-w. The description is as above.

mouse Mcl-1 with truncations of 151 amino acid residues at its N-terminus and 23 residues at its C-terminus (mouse), sequence (P97287 152-308): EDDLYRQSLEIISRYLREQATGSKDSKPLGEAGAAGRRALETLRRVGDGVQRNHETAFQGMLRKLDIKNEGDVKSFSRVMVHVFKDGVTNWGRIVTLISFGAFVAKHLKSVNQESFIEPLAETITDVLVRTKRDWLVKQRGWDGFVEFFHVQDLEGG
Bcl-2, sequence (P10415 1-217): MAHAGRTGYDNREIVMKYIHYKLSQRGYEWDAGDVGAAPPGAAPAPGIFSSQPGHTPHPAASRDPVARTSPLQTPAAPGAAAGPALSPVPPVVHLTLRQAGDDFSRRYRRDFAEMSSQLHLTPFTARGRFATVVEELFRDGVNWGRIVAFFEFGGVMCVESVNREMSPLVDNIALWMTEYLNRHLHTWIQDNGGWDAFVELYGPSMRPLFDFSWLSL

For the substance BimBH3 F19A synthetic peptide, the Fold/wt BimBH3 in the assay with Bcl-2 [1] turned out to be 3 fold; in [2] it was 1 fold; in the assay with A1 [3], 1 fold; with Bcl-w [4], 8 fold. Moreover, the fold decrease in binding affinity is under 3 fold in assay [5]; under 3 fold in the assay with Bcl-2 [6]; under 3 fold in assay [7]; under 3 fold with A1 [8]; 8 fold with Bcl-w [9].
